Laboratory results: patent publication US20250026849A1 (ARCELLX, published 2025)
Numbering of substitutions follows the chain as printed. One block for each binder: values may come before it.

Molecular target: T1, CD123 (Homo sapiens (Human), UniProt P26951 19-305, limits assumed)
T1 construct: The CD123 construct used in the ELISA is not described; also called CD123-Signal
T1 sequence: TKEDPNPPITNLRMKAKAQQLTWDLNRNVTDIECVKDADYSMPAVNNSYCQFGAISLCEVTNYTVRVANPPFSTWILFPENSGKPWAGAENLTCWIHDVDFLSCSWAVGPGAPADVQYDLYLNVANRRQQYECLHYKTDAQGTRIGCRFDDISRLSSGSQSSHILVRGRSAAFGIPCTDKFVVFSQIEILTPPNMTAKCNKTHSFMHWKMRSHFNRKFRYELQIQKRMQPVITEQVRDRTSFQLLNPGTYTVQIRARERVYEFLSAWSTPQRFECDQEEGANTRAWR
Experiment: ELISA
Design: unit not given here

B2: D domain of SEQ ID NO: 351 (designed binder)
chain: MGSWVEFWFRLEAIDSRLWALGGSEAELAAFEKEIAAFESELQAYKGKGNPEVEWLREEAAAIREDLQAYRHN
- ELISA_avg: 3.2

B4: D domain of SEQ ID NO: 365 (designed binder)
chain: MGSWVEFHDRLEAIEDRLLALGGSEAELAAFEKEIAAFESELQAYKGKGNPEVEDLREYAAGIRWFLQAYRHN
- ELISA_avg: 3.3

B5: D domain of SEQ ID NO: 415 (designed binder)
chain: MGSWYEFEDRLWAIDNRLWALGGSEAELAAFEKEIAAFESELQAYKGKGNPEVEELRVHAADIRDDLQAYRHN
- ELISA_avg: 4.9

B6: D domain of SEQ ID NO: 402 (designed binder)
chain: B5 chain with Y5F, E8D, D15E, E55V, V58D, H59N, D62W, D65E, D66I
- ELISA_avg: 4.2

B7: D domain of SEQ ID NO: 354 (designed binder)
chain: B2 chain with V5S, W8I, F9T, S16D, W55I, A62E, E65Q, D66H
- ELISA_avg: 3.3

B8: D domain of SEQ ID NO: 352 (designed binder)
chain: B2 chain with F9Q, D15E, W55F, A62E, E65W, D66E
- ELISA_avg: 7.7

B9: D domain of SEQ ID NO: 364 (designed binder)
chain: B4 chain with H8D, D9Q, E15Y, L19Y, D55W, Y59D, G62Q, W65K, F66W
- ELISA_avg: 5.1

B13: D domain of SEQ ID NO: 362 (designed binder)
chain: B4 chain with L19Y, D55W, Y59D, G62Y, W65S, F66I
- ELISA_avg: 4.6

B18: D domain of SEQ ID NO: 416 (designed binder)
chain: B5 chain with Y5F, E8Q, V58D, D62M, D65W, D66E
- ELISA_avg: 3.2

B21: D domain of SEQ ID NO: 350 (designed binder)
chain: B4 chain with V5A, H8E, E12W, L19W, D55Y, Y59E, G62A, W65F, F66E
- ELISA_avg: 6.2

B22: D domain of SEQ ID NO: 413 (designed binder)
chain: B2 chain with V5F, W8E, F9D, D15Y, S16Q, W19D, E58D, A62W, E65S
- ELISA_avg: 5.5

B23: D domain of SEQ ID NO: 363 (designed binder)
chain: B4 chain with V5I, H8Y, E15Y, L19D, D55W, Y59D, G62F, W65S, F66W
- ELISA_avg: 7.5

B24: D domain of SEQ ID NO: 414 (designed binder)
chain: B5 chain with Y5F, E8H, N16E, E55I, V58E, H59E, D65L
- ELISA_avg: 3.5

B25: D domain of SEQ ID NO: 353 (designed binder)
chain: B2 chain with V5S, F9Q, D15E, S16D, E59N, A62M, E65D, D66E
- ELISA_avg: 4.7

B27: D domain of SEQ ID NO: 349 (designed binder)
chain: B4 chain with V5T, E15D, L19W, D55Y, Y59E, G62Q, F66E
- ELISA_avg: 5.8

B28: D domain of SEQ ID NO: 442 (designed binder)
chain: MGSWVEFHMRLDAIYERLDALGGSEAELAAFEKEIAAFESELQAYKGKGNPEVEWLRTAAANIRVELQAYRHN
- ELISA_avg: 9.1

B29: D domain of SEQ ID NO: 445 (designed binder)
chain: MGSWSEFYVRVDAIYARLSALGGSEAELAAFEKEIAAFESELQAYKGKGNPEVEKLRVWAANIRHELQAYRHN
- ELISA_avg: 14.7

B33: D domain of SEQ ID NO: 438 (designed binder)
chain: B28 chain with V5Y, M9H, D19L, T58S, A59S, V65K
- ELISA_avg: 11.9

B34: D domain of SEQ ID NO: 359 (designed binder)
chain: MGSWTEFSIRLEAIYDRLVALGGSEAELAAFEKEIAAFESELQAYKGKGNPEVEVLRTYAAFIRHELQAYRHN
- ELISA_avg: 10.2

B36: D domain of SEQ ID NO: 435 (designed binder)
chain: B28 chain with V5S, H8N, D19T, T58H, A59S, N62R, V65L
- ELISA_avg: 13.7

B39: D domain of SEQ ID NO: 441 (designed binder)
chain: B28 chain with H8Y, M9T, E16G, T58Q, A59V, V65M
- ELISA_avg: 14.4

B40: D domain of SEQ ID NO: 440 (designed binder)
chain: B28 chain with V5T, H8Y, M9V, T58M, A59V, V65T
- ELISA_avg: 16

More lines, now with the values ahead:

- ELISA_avg: 7.5
B1: D domain of SEQ ID NO: 356 (designed binder)
chain: MGSWTEFYYRLEAIEDRLWALGGSEAELAAFEKEIAAFESELQAYKGKGNPEVEFLRVEAANIRDMLQAYRHN

- ELISA_avg: 3.7
B3: D domain of SEQ ID NO: 361 (designed binder)
chain: B4 chain with D9E, L19M, D55Y, Y59D, G62F, W65Q, F66L

- ELISA_avg: 5.8
B10: D domain of SEQ ID NO: 404 (designed binder)
chain: B2 chain with V5M, W8V, F9D, E12D, D15E, E58I, A62F, D66E

- ELISA_avg: 6
B11: D domain of SEQ ID NO: 405 (designed binder)
chain: B5 chain with Y5D, E8V, D15E, N16E, V58I, H59Q, D62I, D65E, D66A

- ELISA_avg: 9.4
B12: D domain of SEQ ID NO: 400 (designed binder)
chain: B2 chain with W8Y, F9S, E12D, D15E, S16D, E58I, E59A, A62S

- ELISA_avg: 10.5
B14: D domain of SEQ ID NO: 397 (designed binder)
chain: B28 chain with H8D, M9Q, D19Y, T58D, A59E, N62E, V65E, E66H

- ELISA_avg: 3.2
B15: D domain of SEQ ID NO: 430 (designed binder)
chain: B2 chain with V5M, W8E, F9E, E12W, E58S, A62W, E65M, D66E

- ELISA_avg: 10.3
B16: D domain of SEQ ID NO: 412 (designed binder)
chain: B2 chain with V5F, F9D, D15W, S16E, W19D, W55E, E58R, A62I

- ELISA_avg: 8.4
B17: D domain of SEQ ID NO: 401 (designed binder)
chain: MGSWYEFYERLDAIEERLWALGGSEAELAAFEKEIAAFESELQAYKGKGNPEVEVLRDWAAWIREDLQAYRHN

- ELISA_avg: 3.2
B19: D domain of SEQ ID NO: 355 (designed binder)
chain: B1 chain with T5Y, Y8E, Y9T, E15Y, F55L, N62E, D65E, M66D

- ELISA_avg: 3.3
B20: D domain of SEQ ID NO: 396 (designed binder)
chain: B28 chain with H8D, D12S, Y15W, D19I, T58E, A59D, N62E, V65E, E66F

- ELISA_avg: 9.7
B26: D domain of SEQ ID NO: 403 (designed binder)
chain: B17 chain with Y8W, E9D, I14L, E16D, V55Y, W59S, W62F, D66E

- ELISA_avg: 14.4
B30: D domain of SEQ ID NO: 446 (designed binder)
chain: B29 chain with Y8H, V11L, S19D, K55R, V58E, H65R

- ELISA_avg: 6.4
B31: D domain of SEQ ID NO: 357 (designed binder)
chain: B34 chain with T5Y, S8V, Y15E, V19W, T58W, F62D

- ELISA_avg: 11.9
B32: D domain of SEQ ID NO: 358 (designed binder)
chain: B34 chain with F62N

- ELISA_avg: 11.4
B35: D domain of SEQ ID NO: 437 (designed binder)
chain: B28 chain with V5I, H8N, D19V, T58K, A59V, V65L

- ELISA_avg: 15.3
B37: D domain of SEQ ID NO: 439 (designed binder)
chain: B28 chain with V5Y, H8A, M9K, D19V, T58S, A59S, V65E

- ELISA_avg: 16.6
B38: D domain of SEQ ID NO: 444 (designed binder)
chain: B28 chain with V5N, H8V, M9I, D19L, W55Y, T58M, V65M

- ELISA_avg: 11.4
B41: D domain of SEQ ID NO: 436 (designed binder)
chain: B28 chain with V5S, H8N, D19T, T58H, A59S, N62L, V65L

- ELISA_avg: 25.5
B42: D domain of SEQ ID NO: 443 (designed binder)
chain: B29 chain with S5Y, Y8A, V9I, V11L, A16E, S19H, K55Y, H65T
